According to the supplement of paper PMC7877785:
± gives the uncertainty stated by the source.

Assay: self-splicing fitness, log relative to wild type (ln ratio); higher = more splicing; Tetrahymena group I intron in knt gene, E. coli kanamycin selection, DiMSum; sequences stand for … in CUCUCU…GGAGGGAAAAGUUAUCAGGCAUGCACCUGGUAGCUAGUCUUUAAACCAAUAGAUUGCAUCGGUUUAAAAGGCAAGACCGUCAAAUUGCGGGAAAGGGGUCAACAGCCGUUCAGUACCAAGUCUCAGGGGAAACUUUGAGAUGGCCUUGCAAAGGGUAUGGUAAUAAGCUGACGGACAUGGUCCUAACCACGCAGCCAAGUCCUAAGUCAACAGAUCUUCUGUUGAUAUGGAUGCAGUUCACAGACUAAAUGUCGGUCGGGGAAGAUGUAUUCUUCUCAUAAGAUAUAGUCGGACCUCUCCUUAAUGGGAGCUAGCGGAUGAAGUGAUGCAACACUGGAGCCGCUGGGAACUAAUUUGUAUGCGAAAGUAUAUUGAUUAGUUUUGGAGUACUCGUGGUCG
Summary of the method: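 The eight P1ex-region nucleotides of an intron in the knt kanamycin-resistance gene on pET-22b(+) were all randomised and the library put into E. coli BL21(DE3). Six replicate transformations were grown overnight at 37°C or 30°C on LB agar with or without 25 μg/mL kanamycin, together with 100 μg/mL carbenicillin, 50 μM IPTG and 0.2% rhamnose. Colonies were pooled and amplicon-sequenced on an Illumina HiSeq 2500. Fitness from DiMSum is the error-weighted combination of wild-type-normalised replicate fold changes, kanamycin over none.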

Sequence	self-splicing fitness (ln) (30 °C)	self-splicing fitness (ln) (37 °C)
GGCUAGCAAUAUUACGGUGA	-0.0349 ± 0.072	0.281 ± 0.086
CGAUAGCAAUAUUACGGUGC	-3.57 ± 0.3	-2.23 ± 0.24
GAGAAGCAAUAUUACGCCGA	-2.1 ± 0.24	-0.228 ± 0.17
CAUAAGCAAUAUUACGGCCU	-3.3 ± 0.37	-2.79 ± 0.4
GAUAAGCAAUAUUACGUAGC	-2.22 ± 0.13	-0.793 ± 0.12
CGGGAGCAAUAUUACGUGGU	-3.52 ± 0.2	-2.46 ± 0.19
AACUAGCAAUAUUACGGGAA	-1.5 ± 0.074	-1.13 ± 0.084
CGCUAGCAAUAUUACGUGUC	-2.34 ± 0.13	-2.78 ± 0.17
CAAUAGCAAUAUUACGACUA	-1.96 ± 0.36	-1.31 ± 0.27
CCUGAGCAAUAUUACGGUAG	-3.11 ± 0.2	-2.26 ± 0.2
GUAGAGCAAUAUUACGAUCC	-1.22 ± 0.21	-0.765 ± 0.28
AUAAAGCAAUAUUACGUACG	-0.889 ± 0.095	-0.0766 ± 0.13
AGCAAGCAAUAUUACGCGUU	-2.89 ± 0.17	-2.44 ± 0.19
CGUCAGCAAUAUUACGCAGA	-2.79 ± 0.46	-3.76 ± 0.46
AUGAAGCAAUAUUACGUCCA	-0.138 ± 0.075	0.611 ± 0.11
GUACAGCAAUAUUACGCUUG	-1.97 ± 0.098	-1.1 ± 0.12
CCCUAGCAAUAUUACGUCCG	-4.17 ± 0.26	-2.57 ± 0.23
CACGAGCAAUAUUACGUGGA	-3.08 ± 0.17	-2.2 ± 0.17
GUCUAGCAAUAUUACGCAUU	0.0861 ± 0.1	0.379 ± 0.092
AACCAGCAAUAUUACGCGAU	-3.69 ± 0.19	-1.77 ± 0.15
CGACAGCAAUAUUACGCUCA	0.00701 ± 0.094	-0.503 ± 0.1
GCUAAGCAAUAUUACGCUCU	-1.11 ± 0.13	0.486 ± 0.15
UGACAGCAAUAUUACGACGG	-0.284 ± 0.11	-0.251 ± 0.11
ACCAAGCAAUAUUACGCGUG	-2.41 ± 0.083	-1.19 ± 0.07
GAGAAGCAAUAUUACGAUUU	-0.24 ± 0.081	0.493 ± 0.087

Sequence	self-splicing fitness (ln) (30 °C)	self-splicing fitness (ln) (37 °C)
GGUGAGCAAUAUUACGUUAA	-1.89 ± 0.18	-1.09 ± 0.24
UUACAGCAAUAUUACGGGUA	-1.94 ± 0.097	-0.854 ± 0.087
CUUGAGCAAUAUUACGGUAC	-2.24 ± 0.2	-2.16 ± 0.42
CAGGAGCAAUAUUACGAAUA	-3.47 ± 0.29	-1.49 ± 0.24
GAUUAGCAAUAUUACGUCAC	-2.91 ± 0.28	-2.2 ± 0.37
UUGUAGCAAUAUUACGCGUU	-2.56 ± 0.23	-1.64 ± 0.33
UCAGAGCAAUAUUACGAUAG	-4.05 ± 0.39	-2.38 ± 0.39
UCUCAGCAAUAUUACGGUAU	-3.7 ± 0.21	-3.05 ± 0.26
UGAAAGCAAUAUUACGUCAC	-3.83 ± 0.47	-2.2 ± 0.27
CGCAAGCAAUAUUACGCGAU	-3.15 ± 0.22	-3.83 ± 0.42
GUAAAGCAAUAUUACGUUGG	-1.84 ± 0.12	-1.56 ± 0.13
UGGGAGCAAUAUUACGUCUA	-1.22 ± 0.12	-0.187 ± 0.16
AUCUAGCAAUAUUACGUCGG	-3.23 ± 0.2	-2.72 ± 0.27
AGCUAGCAAUAUUACGCAGA	-3.4 ± 0.34	-1.82 ± 0.18
GCACAGCAAUAUUACGGCGU	-0.386 ± 0.061	0.414 ± 0.079
AGCUAGCAAUAUUACGACGC	-1.63 ± 0.098	-0.406 ± 0.13
CAUAAGCAAUAUUACGUUCC	-3.94 ± 0.32	
UAAGAGCAAUAUUACGGCGA	-2.7 ± 0.32	-2.09 ± 0.26
ACCAAGCAAUAUUACGGUGC	-2.72 ± 0.14	-2.12 ± 0.23
UAAGAGCAAUAUUACGCUGG	-2.31 ± 0.26	-2.37 ± 0.27
ACAAAGCAAUAUUACGUCGA	-1.98 ± 0.092	-1.02 ± 0.094
AGGAAGCAAUAUUACGUCGC	-2.62 ± 0.28	-2.06 ± 0.24
UUUAAGCAAUAUUACGGUCA	-1.15 ± 0.12	-0.266 ± 0.1
CAUUAGCAAUAUUACGUUAC	-3.48 ± 0.2	-2.17 ± 0.25
AUUGAGCAAUAUUACGGUCC		-1.58 ± 0.22

Sequence	self-splicing fitness (ln) (30 °C)	self-splicing fitness (ln) (37 °C)
AUGCAGCAAUAUUACGAGAA	-3.47 ± 0.32	-2.64 ± 0.34
UUCCAGCAAUAUUACGUCGC	-1.69 ± 0.32	-1.23 ± 0.45
GGUAAGCAAUAUUACGGAUG	-3.57 ± 0.34	-2.09 ± 0.18
UCAGAGCAAUAUUACGAAAG	-2.84 ± 0.36	-1.6 ± 0.38
UCCUAGCAAUAUUACGUUGU		-1.99 ± 0.29
CAGGAGCAAUAUUACGGCGU	-3.11 ± 0.2	-2.84 ± 0.28
UGUGAGCAAUAUUACGAACA	-0.691 ± 0.42	-0.543 ± 0.45
UGCAAGCAAUAUUACGCACA	-1.38 ± 0.12	-0.954 ± 0.13
AGGAAGCAAUAUUACGCGCC	-1.61 ± 0.29	-0.761 ± 0.27
CAUAAGCAAUAUUACGCUUA	-3.59 ± 0.29	-2.65 ± 0.26
AGAAAGCAAUAUUACGUCUC	-2.56 ± 0.43	
CAUAAGCAAUAUUACGGCAG	0.0468 ± 0.075	-0.545 ± 0.089
GUUGAGCAAUAUUACGAUCA	-2.74 ± 0.37	0.523 ± 0.28
UCCCAGCAAUAUUACGCCAU	-3.09 ± 0.18	-2.83 ± 0.38
GCCCAGCAAUAUUACGAUGC	-0.328 ± 0.055	0.257 ± 0.076
GCUAAGCAAUAUUACGUAGC	-4.22 ± 0.26	-2.16 ± 0.18
GCAUAGCAAUAUUACGUCAC	-3.21 ± 0.16	-2.08 ± 0.22
GUAAAGCAAUAUUACGAUUU	-0.348 ± 0.051	0.232 ± 0.065
CCGAAGCAAUAUUACGUGUA	-4.03 ± 0.22	-2.81 ± 0.19
AGUAAGCAAUAUUACGCAGG	-3.42 ± 0.23	-1.43 ± 0.2
GAAUAGCAAUAUUACGCGCU	-0.615 ± 0.13	-0.0137 ± 0.15
GUACAGCAAUAUUACGGAUG	-2.79 ± 0.2	-1.8 ± 0.17
AGCAAGCAAUAUUACGACUU	0.234 ± 0.098	-0.294 ± 0.11
GCUAAGCAAUAUUACGAUAC	-1.9 ± 0.12	-0.355 ± 0.11
UGGAAGCAAUAUUACGUUAU	-2.23 ± 0.14	-3.09 ± 0.2

Sequence	self-splicing fitness (ln) (30 °C)	self-splicing fitness (ln) (37 °C)
AAGAAGCAAUAUUACGUGGG	-2.71 ± 0.13	-2.57 ± 0.14
CCGCAGCAAUAUUACGGGAG	-3.26 ± 0.16	-3.06 ± 0.24
AUUGAGCAAUAUUACGUAAG	-2.78 ± 0.13	-1.82 ± 0.13
GUCCAGCAAUAUUACGAAGA	-0.611 ± 0.19	-1.51 ± 0.24
GGAUAGCAAUAUUACGACUA	-1.37 ± 0.42	-1.11 ± 0.28
UGGUAGCAAUAUUACGGAAU		-0.962 ± 0.23
UGCUAGCAAUAUUACGAUAU	-2.3 ± 0.23	-2.25 ± 0.21
CAGGAGCAAUAUUACGACGG	-1.44 ± 0.054	-0.588 ± 0.053
CGAUAGCAAUAUUACGAUGC	-4.1 ± 0.21	-1.81 ± 0.15
GAGCAGCAAUAUUACGGCGG	-2.18 ± 0.11	-1.77 ± 0.16
AAUCAGCAAUAUUACGCCUA	-0.0982 ± 0.08	0.103 ± 0.09
CAUGAGCAAUAUUACGUGUC	-2.98 ± 0.17	-1.82 ± 0.22
AUAGAGCAAUAUUACGAAUG	-3.68 ± 0.19	-1.96 ± 0.17
ACUAAGCAAUAUUACGGAGU	-3.72 ± 0.23	-3.11 ± 0.21
UUGGAGCAAUAUUACGAUUC		-1.85 ± 0.32
CUCGAGCAAUAUUACGUGAU	-2.16 ± 0.14	-0.542 ± 0.12
GAUCAGCAAUAUUACGGUCU	-3.56 ± 0.21	-1.9 ± 0.2
AAUAAGCAAUAUUACGCUUG	-1.39 ± 0.13	-0.982 ± 0.15
CGCAAGCAAUAUUACGGUCG	-2.32 ± 0.11	-0.33 ± 0.1
ACCUAGCAAUAUUACGUAUC	-2.83 ± 0.083	-1.85 ± 0.1
AAAAAGCAAUAUUACGGCGA	-0.0921 ± 0.08	0.25 ± 0.12
CCGCAGCAAUAUUACGCACU	-2.9 ± 0.19	-2.51 ± 0.24
